Source: patent US20230257444A1, “FUSION PROTEIN AND COMBINATIONS THEREOF” (Agency for Science, Technology and Research, priority 2020, published 2023)
Read-outs that look alike come from different tables or passages of the source.

Tests used:
SC5314 Candida albicans [1] = assay: In vivo mouse monotherapy survival model (haematogenously disseminated candidiasis); parameters: species or system Balb/c mice
Description: 9 week old female Balb/c mice (InVivos, Singapore) were injected intraperitoneally with 1, 2 or 4 mg hDectin1-Fc in groups of 8 and the drug was allowed to distribute within the mice till its peak concentration at 2 hours based on the pharmacokinetic data. The mice were then injected intravenously with 0.5, 0.25 or 0.1 milion SC5314 Candida albicans cells to achieve a haematogenously disseminated candidiasis model. Another set of mice were injected with 0.5, 1, 2 mg hDectin1-Fc followed by intravenous injection with SC5314 Candida albicans 2 hours later. […] The mice were observed daily and moribund mice were euthanized and counted as dead the following day. Kaplan-Meier survival plots were made to track the survival overtime of the mice. Statistical analysis of the difference between mice treated with hDectin1-Fc or untreated was done with the Mantel-Cox log rank test.
To examine the effect of hDectin1-Fc passive immunization against reducing the fatality of haematogenously disseminated candidiasis, a Balb/c murine model of hDectin1-Fc at various doses in relation to Candida albicans inoculum was used. […] An untreated group without hDectin1-Fc but infected with the respective inoculum of Candida albicans was used as a control in each experimental set (FIG. 15). Survival in each group was monitored twice daily until all the mice had died or there was survival of 2 weeks from the last death. Moribund mice were euthanized and counted as part of the following day. […] The negative effect on survival of a high dose of hDectin1-Fc in relation to fungal inoculum is most apparent in the 4 mg hDectin1-Fc dose with 0.1 million Candida albicans (FIG. 15C) and 2 mg hDectin1-Fc with 0.05 million Candida albicans inoculum (FIG. 15D). […] The proximity between the 2 mg and 1 mg curves have a growing divergence as the fungal burden is reduced from 0.5 to 0.05 million (FIG. 15A-D).

[2] = parameters: species or system Balb/c mice; conditions: mouse, in vivo, ip
Description: 9 week old female Balb/c mice (InVivos, Singapore) were injected intraperitoneally with 0.5, 1, 2 or 4 mg hDectin1-Fc in groups of 3. Blood was sampled from the tail at time 0, 5, 10, 15, 30 mins and 1, 2, 4, 8 hours thereafter followed by daily sampling with Microvette® ([…], Nümbrecht, Germany) for 20 days. The respective blood samples were allowed to clot and centrifuged at 2000 g and the blood serum collected. The blood serum was diluted accordingly and the concentration of hDectin1-Fc was tested with Human IgG ELISA Antibody Pair Kit and developed with pNPP ELISA Substrate ([…] Technologies, Vancouver, Canada). The plates were read on PLATE reader and the data analysed for hDectin1-Fc pharmacokinetic parameters with open source Microsoft Excel add-in PKSolver (China Pharmaceutical University, Nanjing, China).
The pharmacokinetic parameters of hDectin1-Fc at different doses (4 mg, 2 mg, 1 mg and 0.5 mg) were determined by administering a single bolus intraperitoneal injection and sampling blood serum daily (FIG. 14). The daily concentration over 20 days was measured by ELISA and the results analysed with PKSolver to determine the pharmacokinetic parameters (Table 2). […] The lowest dose of 0.5 mg has a half-life and MRT lower than the 2 mg and 1 mg dose and its peak concentration (Cmax) is at 10 hours instead of 2 hours like the other doses. This observed outcome for the 0.5 mg dose is likely to arise from the slow transfer of hDectin1-Fc from the intraperitoneal space of the mouse into its bloodstream due to the lower concentration gradient and stronger role of excretion over distribution. The duration of the MRT and the half-life is a reflection of the presence of the protective effects of hDectin1-Fc in the body of the mice. The optimal dose with the longest MRT and half-life is approximately 1 mg. The general take away from the pharmacokinetic study are: (i) high doses result in rapid excretion of the drug, (ii) peak concentration occurs at 2 hours (iii) lower doses have a longer half-life and mean residence time appropriate for passive immunization.

SC5314 Candida albicans [3] = assay: In vitro combination therapy checkerboard dilution assay (Amphotericin B & hDectin1-Fc) with human primary macrophages; type: cell-based; conditions: between 0 μg/ml and 100 µg/ml hDectin1-Fc, 24 hours
Description: Human peripheral blood CD14+ monocytes were cultured at 1×10^6 cells/mL in 5 mL of ImmunoCult™-SF Macrophage Differentiation Medium with Human Recombinant M-CSF at 50 ng/ml in a T-25 flask at 37° C. in a 5% CO2 incubator. On Day 4, 2.5 mL of fresh ImmunoCult™-SF Macrophage Differentiation Medium was added to the flask. On Day 6, M1 activation was initiated with the addition of 50 ng/mL IFN-γ. On Day 8, the macrophages were treated with ACCUTASE and scrapped from the flask. The cells were centrifuged and resuspended in RPMI medium with 10% FBS and seeded into 96 well plates at 10^5 cells/well. The co-culture assay involves the addition of 10^5 cells/well of SC5314 Candida albicans cells to wells containing 10^5 cells/well of human primary macrophages cells with final concentration of hDectin1-Fc at 0, 1, 10 or 100 g/ml and varying concentration of Amphotericin B in a checkerboard dilution assay format in a 96 well plate. The assay was incubated for 24 hr at 37° C. in a 5% CO2 atmosphere incubator and the MIC and MFC determined visual using a Nikon Eclipse Ti-E inverted microscope.
10′ Candida albicans cells and 10′ human primary macropahges were seeded per well in a checkerboard dilution assay of Amphotericin B with the respective concentration of hDectin1-Fc (0, 10, 100 μg/ml) and incubated for 24 hours at 37° C.

hDectin1-Fc: soluble dimeric fusion protein: human Dectin-1 receptor polypeptide (aa 73-247) fused to human IgG1 Fc via hinge; SEQ ID NO: 5
survival curve (SC5314 Candida albicans [1]; 0.05 mg hDectin1-Fc, subacute inoculum of 0.05 million Candida albicans cells): prominent shift in the survival curve | survival (rate of death vs untreated group) (SC5314 Candida albicans [1]; 2 mg hDectin1-Fc i.p., 0.05 million Candida albicans i.v. (FIG. 15D)): rate of death was greater than the corresponding untreated group | survival (rate of death vs untreated group) (SC5314 Candida albicans [1]; 4 mg hDectin1-Fc i.p., 0.1 million Candida albicans i.v. (FIG. 15C)): rate of death was greater than the corresponding untreated group | survivability (SC5314 Candida albicans [1]; hDectin1-Fc at the appropriate dose, passive immunization 2 hours before challenge): able to improve survivability | survival, 1 mg dose versus 2 mg dose (SC5314 Candida albicans [1]; lethal infection model, 0.5 million Candida albicans cells (FIG. 15A)): marginal optimal therapeutic effect of the 1 mg dose over the 2 mg dose | Cl/F ([2]; 0.5 mg): 0.0066 (μg)/(μg/ml)/h | Cmax ([2]; 0.5 mg): 330 µg/mL | Tmax ([2]; 0.5 mg): 10 h | Vz/F ([2]; 0.5 mg): 0.9495 (μg)/(μg/ml) | t½ ([2]; 0.5 mg): 100 h | Cl/F ([2]; 1 mg): 0.0163 (μg)/(μg/ml)/h | Cmax ([2]; 1 mg): 294 µg/mL | Tmax ([2]; 1 mg): 2 h | Vz/F ([2]; 1 mg): 3.4254 (μg)/(μg/ml) | t½ ([2]; 1 mg): 146 h | Cl/F ([2]; 2 mg): 0.0095 (μg)/(μg/ml)/h | Cmax ([2]; 2 mg): 1039 µg/mL | Tmax ([2]; 2 mg): 2 h | Vz/F ([2]; 2 mg): 2.1489 (μg)/(μg/ml) | t½ ([2]; 2 mg): 156 h | Cl/F ([2]; 4 mg): 0.0314 (μg)/(μg/ml)/h | Tmax ([2]; 4 mg): 2 h | Vz/F ([2]; 4 mg): 3.5008 (μg)/(μg/ml) | t½ ([2]; 4 mg): 77 h | reduction in MFC of Amphotericin B (SC5314 Candida albicans [3]): ~45%
